Assay results from the DeepSol protein solubility set.

Test: soluble on expression in E. coli; label from the status in PepcDB or PDB records

Sequence | soluble on expression in E. coli
MVDIIIAEHAGFCFGVKRAVKLAEESLKESQGKVYTLGPIIHNPQEVNRLKNLGVFPSQGEEFKEGDTVIIRSHGIPPEKEEALRKKGLKVIDATCPYVKAVHEAVCQLTREGYFVVLVGEKNHPEVIGTLGYLRACNGKGIVVETLEDIGEALKHERVGIVAQTTQNEEFFKEVVGEIALWVKEVKVINTICNATSLRQESVKKLAPEVDVMIIIGGKNSGNTRRLYYISKELNPNTYHIETAEELQPEWFRGVKRVGISAGASTPDWIIEQVKSRIQEICEGQLVSSRSHHHHHH | soluble
MVDLYQLFKTRTPIIGVVHLLPLPTSPRWGGSLKAVIDRAEQEATALASGGVNGIIVENFFDAPFTKNQVDPAVVSAMTVVVQRIQNLVTLPVGLNVLRNDGKSAMAIASCVRAQFIRVNVLTGVMATDQGLIEGEAHELLRYRRELGSDVQILADVLVKHARPLSSPNLTVAVKDTIERGLADAVILSGWATGSPPNQEDLELACDAANGTPVFIGSGASWENIATLLQAANGVIVSSSLKRHGRIEQPIDPIRVSQFVEAAHRSWNSKGESKSVSSITIHSLEHHHHHH | not soluble
MVDREWVLKIAKLARLELKEEEIEVFQKQLSDILDFIDQLKELDTENVEPYIQEFEETPMREDEPHPSLDREKALMNAPERKDGFFVVPRVVEV | soluble
MVEADPRFQEAIRLFNAQEWYAAHDVLEEIWHETADPERRCLQGLLQVAVAQLHLQRDNQRGATILFGEALGRLRRPGTPDLGLDLPALCHCVQGRLVQLQQDGDPESCTVPVLSPSP | not soluble
MVEDTKTQMAAAISATLVFAARRRPLFCSLSSSSSSKPNTRKLVLYSKPGCCLCDGLKEKLHAAFTLSTGPDSLNDVTLQVRDITTNPEWERAYQYEIPVLAKENSDGKEEVLPRLSPRLSAELIQKKLLAAFS | not soluble
MVEKELEEKVYKSIIKTIKDTPLEEFYTSGHRTCQGCESALVMRFLAKAAGPRTIVIGATGCMYVANTTYYTTSWIVPWVHTQLGGTGAAALGTAAALRALMRKGKIKQEPINVIAFCGDLGCADMGLSGVSNAMTYDYNLLIILYDNESSANTDIQETSMTPFGAQTSFSRPGKQRRIMKKRWKKSVVPMIIAGHRNVRYAATMTPAYPLDSMNKIRKALTIGGPTFIHSLDPCPKGWDYDPKFSHELGVLAVETGLWPLYEYIDGEIVYNEPTKSIVEGRMKRKPVKEYLEKQGRFSHFTEEDIEYVQRMVDEMYEEWEIPGVMPIKSINAKISDK | not soluble
MVETPPAWVLLKRARERIYTLPPDFPGFRARLGLCLDGVWYVGAVEAEGFAPKTLGLFGEAGAIAEKELGSLLGHRRPAPFEEGEGRYPMRLFAEGPLGTGIALEDPFRSRIWVKEGRLALIERHLPEGSFRIHLETWREVGERLLPHRFLLVHRDPRGHLLKVERFRDEYAQVGPYWLPVEREVVVEGEGLGVLVLRLEEVEVKG | soluble
MVFTPLDVRTIVSLPSCPKCNSEYTYEDGSLLICPECAHEWSADAGSADASDDVKVIKDSTGNVLQDGDTITVIKDLKVKGSSLVVKVGTKVKNIRLVDGDHDIDCKIDGIGAMKLKSEFVRKV | not soluble
MVFYLIGLGLGDVEDITVKGLNIVKNCARVHLEAYTSILCYGLDKTNLEKFYGREIIEADRTVVEQESDAILNGADKEDVALLVVGDPFGATTHADLVLRAKQQNIPVKVIHNASIMNAVGCCGLQLYNFGETVSIVMWTDEWQPESYYDKIALNRKRGMHTLCLLDIKTKEQTVENMMRGRKIFEPARYQKCSEAARQLLTIYERRKAKGEECAYDENTMVVGLARVGWDNQKIVYASMKDMSEMEMGEPLHSLIIPGETHPLEVDMLETFRP | not soluble
MVGGEDMAKKKAPSAKEGEKQQGFKEIIPEVTEKLVEQARKEVARERWVTPHKLAQKMGVKVSIARRVLRILEEEGVLVLFTRNRRSPLYLEHHHHHH | not soluble
MVGRVAQGKEPLHPGPRRQPGGARPGADLGPGGGVNPSPRKRVALFTDGACLGNPGPGGWAALLRFHAHEKLLSGGEACTTNNRMELKAAIEGLKALKEPCEVDLYTDSHYLKKAFTEGWLEGWRKRGWRTAEGKPVKNRDLWEALLLAMAPHRVRFHFVKGHTGHPENERVDREARRQAQSQAKTPCPPRAPTLFHEEA | soluble
